Measurements as given in patent US20030068416A1, “Method of lyophylization to reduce solvent content and enhance product recovery” (priority 2001, published 2003).

What was measured:
Format in all cases: physicochemical
[1] = Residual solvent content of trypsin after lyophilization (Example 1); conditions: primary and secondary drying cycles, 62 hours
Procedure: (§1) When the solvent is water, the residual solvent content referenced herein refer to levels determined by the FDA approved, modified Karl Fischer method (Meyer and Boyd, Analytical Chem., 31:215-219, 1959; May, et al., J. Biol. Standardization, 10:249-259, 1982; Centers for Biologics Evaluation and Research, FDA, Docket No. 89D-0140, 83-93; 1990) or by near infrared spectroscopy.
1 ml aliquots of trypsin alone or with 100 mM sodium ascorbate were placed in 3 ml vials. Samples were prepared in triplicate and subjected to lyophilization (primary and secondary drying cycles; 62 hours).

[2] = Residual solvent content of trypsin after lyophilization, sampled after primary drying and at end of cycle (Example 2)
Procedure: as §1
(§2) 1 ml aliquots of trypsin alone or with 100 mM sodium ascorbate were placed in 3 ml vials. Samples were prepared in triplicate and subjected to lyophilization. Samples were removed (using sample thief) at the end of primary drying (22 hours after start of the cycle), the cycle continued to completion (62 hours after start of cycle) at this time vials were sealed under vacuum and removed from the freeze dryer.

[3] = Residual solvent content of trypsin frozen overnight at -70 C and lyophilized (Example 3); conditions: frozen overnight at -70 C before lyophilization
Procedure: as §1
as §2, with “vials and frozen overnight at −70° C.” for “vials.”, “quadruplicate” for “triplicate”

Substance: trypsin
- residual solvent content ([1]; absence of sodium ascorbate): about 1.8 % water
- residual solvent content ([1]; presence of 100 mM sodium ascorbate): about 0.7 % water
- residual solvent content ([2]; absence of sodium ascorbate, following a primary drying cycle alone (22 hours)): about 5.8 % water
- residual solvent content ([2]; absence of sodium ascorbate, following primary and secondary drying cycle (62 hours)): about 5.4 % water
- residual solvent content ([2]; presence of 100 mM sodium ascorbate, following a primary drying cycle alone (22 hours)): about 2.8 % water
- residual solvent content ([2]; presence of 100 mM sodium ascorbate, following primary and secondary drying cycle (62 hours)): about 1.1 % water
- residual solvent content ([3]; absence of ascorbate): about 3.9 % water
- residual solvent content ([3]; presence of ascorbate (100 mM sodium ascorbate)): 0.7 % water
